Source: paper PMC5673489 (Cell, 2017)

Key:
[1] = target: FIT-1 bispecific antibody (Fabs-in-tandem-Ig, ZKA190 outer Fab, ZKA185 inner Fab, IgG1 LALA) (human); experiment: SPR
[2] = target: T1, recombinant DIII of ZIKV E protein (Brazil 2015 strain SPH2015) (Zika virus, Brazil 2015 strain SPH2015, strain); experiment: SPR
T1 chain: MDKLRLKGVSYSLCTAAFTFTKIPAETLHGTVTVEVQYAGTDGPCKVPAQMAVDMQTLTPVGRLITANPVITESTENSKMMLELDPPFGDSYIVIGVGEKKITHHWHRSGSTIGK

[3] = target: T1, recombinant DIII of ZIKV E protein …; experiment: NMR titration

For “recombinant E protein from ZIKV (natural protein)”, the Kd [1] was < 1 pM.

B1: ZKA190 IgG (antibody, V domains shown)
VH: QVQLVESGGGVVQPGRSLRLSCAASGFTFSKYGMHWVRQAPGKGLEWVAVISYEGSNKYYADSVKGRFTISRDNSKNTLYLQMNSLRAEDTAVYYCAKSGTQYYDTTGYEYRGLEYFGYWGQGTLVTVS
VL: EIVLTQSPGTLSLSPGERATLSCRASQSVSSSYLAWYQQKRGQAPRLLIYDASSRATGIPDRFSGSGSGTDFTLTISRLEPEDFAVYYCQQYGRSRWTFGQGTKVEIK
B1: binds [2].

B2: ZKA190 Fab (Fab, V domains shown)
VH: B1 VH
VL: B1 VL
B2: binds [3].
